The values that follow are results of earlier work, collected in paper PMC11316025.

This data set concerns the target KRAS (Homo sapiens) (UniProt P01116).

RASSF5, sequence (Q8WWW0 whole entry): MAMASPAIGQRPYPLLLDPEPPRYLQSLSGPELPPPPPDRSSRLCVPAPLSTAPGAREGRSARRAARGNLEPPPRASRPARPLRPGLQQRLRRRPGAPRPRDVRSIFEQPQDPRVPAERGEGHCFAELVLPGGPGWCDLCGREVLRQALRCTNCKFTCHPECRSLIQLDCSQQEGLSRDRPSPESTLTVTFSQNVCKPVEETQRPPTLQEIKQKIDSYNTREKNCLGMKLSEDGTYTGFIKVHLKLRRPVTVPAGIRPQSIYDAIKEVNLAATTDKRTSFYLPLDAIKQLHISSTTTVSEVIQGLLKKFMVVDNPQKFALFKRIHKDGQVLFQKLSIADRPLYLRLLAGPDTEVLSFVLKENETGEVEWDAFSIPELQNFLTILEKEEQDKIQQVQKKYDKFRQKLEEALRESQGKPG

In the case of RASSF5 (from UniProt Q8WWW0), the Kd (commonly the free concentration of one partner at which half of the binding sites on the other are occupied at equilibrium, for simple one-to-one binding) is 1700 nM.
